Values of other authors as cited in publication PMC5250575.

Molecular target: Kv1.3 (Homo sapiens) (UniProt P22001)
UniProt P22001, sequence (P22001 whole entry): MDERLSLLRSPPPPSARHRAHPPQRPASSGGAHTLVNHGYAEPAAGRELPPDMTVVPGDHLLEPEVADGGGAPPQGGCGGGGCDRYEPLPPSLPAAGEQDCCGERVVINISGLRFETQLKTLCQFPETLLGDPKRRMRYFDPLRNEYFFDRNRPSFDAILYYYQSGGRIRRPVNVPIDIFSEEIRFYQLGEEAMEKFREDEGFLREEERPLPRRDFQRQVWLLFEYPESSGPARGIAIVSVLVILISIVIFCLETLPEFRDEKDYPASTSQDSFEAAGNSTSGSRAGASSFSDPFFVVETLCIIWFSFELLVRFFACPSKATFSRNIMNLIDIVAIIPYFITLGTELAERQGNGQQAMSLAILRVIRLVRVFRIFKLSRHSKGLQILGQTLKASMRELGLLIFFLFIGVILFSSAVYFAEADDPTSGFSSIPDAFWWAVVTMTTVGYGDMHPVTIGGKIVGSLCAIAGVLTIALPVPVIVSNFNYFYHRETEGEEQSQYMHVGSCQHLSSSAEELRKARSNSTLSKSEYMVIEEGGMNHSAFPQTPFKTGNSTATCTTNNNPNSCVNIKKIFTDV

Margatoxin (from UniProt P40755)
Kd: 0.0117 nM
